A short description of series [1]: In vivo swine pharmacokinetics after L-SOMA, subcutaneous or endoscopic gavage dosing. As for the experimental part:
In vivo swine experiments were performed in which L-SOMA devices loaded with either an inactivated GLP-1 receptor agonist or fast acting insulin were prepared. L-SOMA dosing experiments were compared to subcutaneous dosing experiments and experiments where swine were dosed with the liquid formulation into the stomach lumen. Using an endoscope, L-SOMA devices were placed into the stomachs of swine and allowed to independently actuate. After 2 hours the devices were removed from the animal. Time 0 corresponds to the time at which the device was placed in the stomach and not the time that the device actuated. The swine dosed were partially fasted but contained a layer of gastric fluid and food approximately the same height as the L-SOMA capsule.
(§1) L-SOMA dosings were compared to subcutaneous or intramuscular dosings as positive controls. Using an endoscope, we placed L-SOMA devices into the stomachs of swine and allowed them to independently actuate. After 2 hours the devices were removed from the animal.
Insulin and GLP-1 generally have limited ability to traverse the stomach lining for systemic uptake when administered without a permeation enhancer or physical permeation enhancing device.

A further series has as its system blood glucose. Nature of the series: Blood glucose in swine after dosing. In kind it is in vivo. As for the experimental part:
as §1

A further series concerns heart rate. The conditions noted are these: swine; 0.24 mg; both intramuscular injection and L-SOMA groups. As for the experimental part: as §1
Another series relates to swine stomach. Description: Histology of swine stomach after L-SOMA injection. In kind it is in vivo. As to conditions: swine stomach after L-SOMA epinephrine injection. How it is done: as §1
The nature of series [2]: Liquid formulation stability, two weeks at 40° C. and 75% relative humidity. In kind it is physicochemical. How it is done: FIGS. 53A-53B show liquid formulation stability, according to one set of embodiments. Human Insulin (HI) and Semaglutide (Sema) formulations were placed inside of either an L-SOMA or a glass vial apparatus and were subjected to a 40° C. and 75% relative humidity environment for two weeks. (a) Purity loss and (b) high molecular weight protein (HMWP) formation were then measured. (Error=SD, n=3 device replicates, **P<0.01, ***P<0.001).
Additionally, the purity loss for the liquid formulation was higher than the purity loss for the solid formulation we previously reported using in the SOMA system. Optimization of the L-SOMA storage system and loaded liquid formulation will be required to ensure long term stability of the filled drug.

`CNC[C@H](O)c1ccc(O)c(O)c1` [epinephrine]: in series [1] (in vivo), the “uptake after endoscopic gavage (negative control)” value is “negligible uptake”. Also, the “plasma exposure of drug observed after administration” value in series [1] (swine, in vivo) was not above 15 min. The blood glucose change entry with blood glucose (0.24 mg, both intramuscular injection and L-SOMA groups) is reported as “abrupt rise”. Besides, the heart rate change result in the series with heart rate is reported as “abrupt rise”. Further, the “H&E staining: necrosis or adverse effects elicited by the drug” value in the series on swine stomach is on record as “no evidence of necrosis or adverse effects”.

As for adalimumab, in series [1] (in vivo), the “uptake after endoscopic gavage (negative control)” value is recorded as “negligible uptake”. For the same compound, the “drug in blood plasma after dosing” value in series [1] (in vivo, sc) was “at least 3 days”.

For the compound “recombinant human insulin: recombinant human insulin, 1 mg liquid dose”, the “bioavailability, range” value in series [1] (swine, L-SOMA dosed, 1 mg, two hour sampling period, n=8) is listed as 25%-81%. Moreover, the “bioavailability, range” value in series [1] (swine, dosed subcutaneously, insulin, n=3) is recorded as 50.8%-66.2%. For the same compound, in the series on blood glucose (insulin 1 mg, L-SOMA (FIG. 47B) and subcutaneous (FIG. 47F)), the hypoglycemic onset entry is reported as “immediate hypoglycemic onset”. Further, in series [2], the “high molecular weight protein formation, L-SOMA system versus glass vial system” value is given as “greater” and the “purity loss, L-SOMA system versus glass vial system” value is “greater”.

For semaglutide, in series [2], the “high molecular weight protein formation, L-SOMA system versus glass vial system” value is given as “greater” and the “purity loss, L-SOMA system versus glass vial system” value is recorded as “greater”.

(Values after patent US11771829B2, “Systems and methods for liquid injection” (Massachusetts Institute of Technology, priority 2019, dated 2023).)
